Test results: the supplement of paper PMC9170038

System: K4 kissing-loop RNA reporter
Experiment: apparent KD of K4 kissing-loop reporter; higher = weaker reporter binding
Conditions: Eterna round: R107
Method: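 RNA-MaP round R107: designed RNA switches with theophylline, tryptophan, arginine or FMN aptamers are transcribed on-chip within common flanks. They are titrated with a labelled K4 kissing-loop RNA reporter in RNA-MaP buffer (100 mM Tris pH 7.5, 80 mM KCl, 4 mM MgCl2), without ligand or with the indicated ligand. Median apparent KD per design.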

[1] = input ligand: theophylline 20 uM
[2] = input ligand: tryptophan 2.4 mM
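Note: bound reporter read as fluorescence of individual clusters on recovered sequencing chips by microscopy, with normalized cluster intensities fitted with a binding model.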

Sequence | apparent KD of K4 kissing-loop reporter (input ligand: FMN 200 uM) | apparent KD of K4 kissing-loop reporter (input ligand: arginine 13.2 mM) | apparent KD of K4 kissing-loop reporter (input ligand: none) | apparent KD of K4 kissing-loop reporter [1] | apparent KD of K4 kissing-loop reporter [2]
ACGCUAGCUACCGAAAGGUAGCUAGCGAGUGAGGAUAUGUGGAAACACAGAAGGCACAGCGCAGUGAUGUUGUGCGGCGAAAGCC [whbob_SS_FMNA__2th166] | 462 nM | 275 nM | 418 nM | 231 nM | 803 nM
ACGGGCGGCUGAAGGAGCGGGCGGGCCCGAGUGAUGUUCGGGUGGGCCGUGAGGUCCGGAGCCCAGGUAGGUCGCGGUUCCGCCU [#2 Same State - Arginine B Attempt #14 (HarryS)] | 157 nM | 119 nM | 152 nM | 197 nM | 181 nM
ACGUAGCAGGCGGCCGCCACUCCGCAUAUGGAUCUCGAGUGAUGUUUGAGGGUGCCCAUCACAGCGAGGACCGGGCCAAUUAAGC [theeternabot_sameState_KL_Trp_B_10] | 86.2 nM | 105 nM | 127 nM | 179 nM | 254 nM
ACGUAUAUCAGAGGAUAUCGUAUUAAUAUUUUAUCUAUAUAUUAUAGCAGUGAUGUUGCAAUUAUUCGAGAAGGCUGAUUUACGA [JR_SSFMNB_Sub023] | 144 nM | 170 nM | 139 nM | 194 nM | 100 nM
ACGUCCCGUUUACUCGUGGGUUAGGUCGAUACCAGUAUUCAAACUUACCCUUGGCAGCGACAUGAGUGAUGUUCAUGUGCGAAGA [KL-XTheo-A5 #analogue] | 114 nM | 96.2 nM | 108 nM | 108 nM | 104 nM
ACGUCCGGAUUGAUCGUGGGCAUGGUCGAUACCAGUAGUUUAAUCUACCCUUGGCAGCGACAUGAGUGAUGUUCAUGUGCGAUGA [KL-XTheo-A7 #analogue] | 185 nM | 164 nM | 173 nM | 350 nM | 185 nM
ACUGGAAUUGUACUCCAGUGAUGUUGGAGGCAGGAUAUCCAGUAAAGGAGAAGGGCCAUCGCGCUAUUUGGCCGCAGGCGGCCAG [Acela] | 147 nM | 113 nM | 128 nM | 177 nM | 150 nM
AGAAAGAAGGCGGCCGCCACUCUGAUGGGCGAAAGCCCAUUUUUUUAGCAGUGAUGUUGCUUGUUGAGGACCGGGCCAAAGAAAU [2nd] | 179 nM | 174 nM | 155 nM | 193 nM | 114 nM
AGAACUGUCUGAGAUACCAGCCAUAGGAGUGAUGUUCCUAGCUCCACAAAGUGGAGCCAUGGCCCUUGGCAGCUCAGACAGUUCA [Omei KL Theo B SS A v8] | 219 nM | 191 nM | 219 nM | 133 nM | 206 nM
AGACAUAUGACUGUAUGUUUCCAAGGUGUCAAGGAUAUAGUAAACACUAGAAGGUGAGAUCACAGGAGUGAUGUUCGAAAAUGGA [theeternabot_sameState_KL_FMN_A_14] | 419 nM | 208 nM | 237 nM | 233 nM | 248 nM
AGACCACAAAGUGGUCAGUGUUCGCUGCAGCGAGGACCGGUACGGCCGCCACUCGCGAGUGAUGUUCGCGAGAGCAGCGAACACA [Omei KL Tryp A Exc A v6] | 90.9 nM | 83.4 nM | 82.1 nM | 87.3 nM | 116 nM
AGACUACCACACUGUCAAUAGACAGUGAGCUAGGAUAUGCUGAUAAGCAGAAGGAGUGAUGUUCCAAGGUAGUCAAUAAAAUAAU [FmnAX 13 G29+A66] | 209 nM | 203 nM | 221 nM | 267 nM | 209 nM
AGACUACCACACUGUCAAUAGACAGUGGACUAGGAUAUGCUGAUAAGCAGAAGGAGUGAUGUUCCAAGGUAGUCAAUAAAAUAAU [FmnAX 13 G28+A66] | 294 nM | 257 nM | 309 nM | 396 nM | 279 nM
AGACUACCACACUGUCAAUAGACAGUGUACUAGGAUAUGCUGAUAAGCAGAAGGAGUGAUGUUCCUGGGUAGUCAAUAAAAUAAU [FmnAX 13 U28+G67] | 507 nM | 388 nM | 486 nM | 514 nM | 404 nM
AGACUACUGAUAGGAUAUAACAUACUAACUCGUAUACCAAAGGUAUACGAGACCCUUCUAGUGAUGUUAGAAGGGUCGGUAGUCA [Omei KL FMN B Exc B v6] | 82.2 nM | 74 nM | 76.3 nM | 74.8 nM | 73.9 nM
AGAGUUAUGCGAGGAUAUGCGGUUAGUACUCAAAGAGUACUAACAGCAGAGUGAUGUUCUGUGAAAGCAGAAGGUGCAUAACUCA [Omei KL FMN B SS B v10] | 153 nM | 1060 nM | 1040 nM | 1120 nM | 1320 nM

Sequence | apparent KD of K4 kissing-loop reporter (input ligand: FMN 200 uM) | apparent KD of K4 kissing-loop reporter (input ligand: arginine 13.2 mM) | apparent KD of K4 kissing-loop reporter (input ligand: none) | apparent KD of K4 kissing-loop reporter [1] | apparent KD of K4 kissing-loop reporter [2]
AGAGUUAUGCGAGGAUAUGCGGUUAGUACUCAAAGAGUACUAACGGCAGAGUGAUGUUCUGUGAAAGCAGAAGGUGCAUAACUCA [Omei KL FMN B SS B v9] | 274 nM | 523 nM | 1090 nM | 327 nM | 1360 nM
AGAUUCGACACGGCCGCCACUCGUGGUGGAUUACCUAGUGUCGAAGUUGAGUGAUGUUCAACUACGAGGACCGGGUGUUGAGUCU [KL-XTryp-B7 #analogue] | 253 nM | 161 nM | 215 nM | 211 nM | 448 nM
AGAUUCUUUUUUUUAUUUAAGUUUUCAGAAGGAGCGUGGUAGUACACAGGUAGGUCGCUGAAUUUUGGGCUAGUGAUGUUAGUUA [whbob_SS_Arginine_A_sa115] | 180 nM | 188 nM | 221 nM | 231 nM | 135 nM
AGCGAUGUUUUCUCUAGGAGUGAUGUUUUUCGAGGACCGGUACGGCCGCCACUCGGACGACGAGUGUGGUAGUGGGCUGUUGACU [ffmullin] | 483 nM | 296 nM | 441 nM | 231 nM | 493 nM
AGGAAGUGAGAAGGAUAUUACACUCGGAAGCGCUAGUGAUGUUAGCAUAGAAACAAGGGAACAUGGUAAGAAGGUCUUACAAUGA [theeternabot_sameState_KL_FMN_B_2] | 76.6 nM | 71.6 nM | 38.9 nM | 69.5 nM | 40.1 nM
AGGAUCACGUCAGUGAUGUUGACAAGAGAUACCAGAGACGAAAGUCUCCCUUGGCAGCUCAUCGUGAUCCGUGACAAAGGUCACA [Omei KL hio A SS C v3] | 262 nM | 135 nM | 143 nM | 155 nM | 189 nM
AGGAUCCGUCGACAAAAGUCGACAUAAACCAAGGAUAUGACGAAAGUCAGAAGGUGGUCAUAAGGCCAGUGAUGUUGGUGGAUCC [FmnA 12 #SwitchBubble #K4Late] | 927 nM | 431 nM | 576 nM | 796 nM | 349 nM
AGGCACGAGCAAGGAUAUCGAGUAGAGUGAUGUUCUGCCUGGGUUGGCGCGUAAGGGCCUUCCCAGCGAGAAGGUGCUCGUGCCU [#2 Same State - FMN A Attempt #12 (HarryS)] | 253 nM | 681 nM | 939 nM | 677 nM | 660 nM
AGGCACGAGCAAGGAUAUCGAGUGGAGUGAUGUUCUGCCGACCCAGGACCGAAAGGUCCUGGGUCGCGAGAAGGUGCUCGUGCCU [#2 Same State - FMN A Attempt #8 (HarryS)] | 215 nM | 785 nM | 949 nM | 568 nM | 711 nM
AGGCCCGGCCGAAAGGCCGGGCCAAGAGAUACCAGCAGCGAAAGCUGCCCUUGGCAGCUCACUUAGUGAUGUUAAGAGAUAAAUG [SS Theo A Tesla 1.2] | 365 nM | 353 nM | 294 nM | 424 nM | 279 nM
AGGUACAAAAGUACCGCUAGAUCCACGGAAGGAGCGGCCGAAAGGCCAGGUAGGUCGCCGGGCAGUGAUGUUGCCGGAUCUAGCA [Omei KL Arginine A SS A v2] | 194 nM | 171 nM | 200 nM | 185 nM | 169 nM
AGGUCCGAGCCCGUAAGGGCUCGGACCUGUUAGGAUAUGACGUUAUUCAGAAGGGAUGGGUGGAGUGAUGUUCCACCCGCAAGGG [#2 Same State - FMN A Attempt #10 (HarryS)] | 98.8 nM | 102 nM | 93.2 nM | 91.7 nM | 95.7 nM
AGUGAAGUUAGUGAUGUGUGAGUUUGGGAAGGAGCGCCGAGAACGGCAGGUAGGUCGCCCAGUGAUGUUGGUGUAAAGAUGAGAG [whbob_Ex_Arginine_A_2t121] | 275 nM | 184 nM | 239 nM | 232 nM | 208 nM
AGUGAUGUAUGGCGGUUUGUCACUUAAAAUCAGGAUAUAUAAACAAAUAGAAGGGAUGGCGGAGUGAUGUUCCGCCGGCCGCCAU [FMN A Exl V1] | 171 nM | 145 nM | 177 nM | 179 nM | 162 nM
AGUGAUGUGGGAAGGAGCGCUACAAGACUUCAGUGAUGUUGAAGUGAUGAUUUAGUGUUGUAGCAGGUAGGUCGCCUAGAUGUUA [KL-XARG-B9] | 60.9 nM | 27 nM | 44.9 nM | 36.2 nM | 39.1 nM
AGUGAUGUGGGAAGGAGCGGUACAUGACUUCAGUGAUGUUGAAGUGAUGAUUUAGUGAUGUGCCAGGUAGGUCGCCUAGAUGUUA [KL-XARG-B7] | 79.8 nM | 36.7 nM | 68.1 nM | 41.8 nM | 51 nM
